Bridge positions count the residues as written; N and C are the ends.
B1: human glucose-regulated protein GRP78 (natural protein)
chain: not shown
notes: also called heat shock protein A5; HSPA5; source: Escherichia coli, recombinant; bought: Abcam

Assays:
[1] = molecular target: B1; test: SPR; settings: both partners purified
[2] = molecular target: T1, S1 subunit (aa 14-685) of the spike protein of SARS-CoV-2 (SARS-CoV-2, UniProt P0DTC2 14-685); test: SPR; settings: both partners purified
T1 construct: also called soluble S1; wild-type S1 protein

Binder	IC50 [1]	Kd [1]	KD in the presence of 12.5 uM LCP O [2]	KD in the presence of 12.5 uM LCP W [2]
H-CTVALPGGYVRVC-NH2 (disulfide 1-13; SMILES CC(C)C[C@@H]1NC(=O)[C@H](C)NC(=O)[C@H](C(C)C)NC(=O)[C@H]([C@@H](C)O)NC(=O)[C@@H](N)CSSC[C@@H](C(N)=O)NC(=O)[C@H](C(C)C)NC(=O)[C@H](CCCNC(=N)N)NC(=O)[C@H](C(C)C)NC(=O)[C@H](Cc2ccc(O)cc2)NC(=O)CNC(=O)CNC(=O)[C@@H]2CCCN2C1=O, source: synthetic peptide (Fmoc SPPS, disulphide cyclisation with DMSO, HPLC purified)) [Pep42, 13-mer cyclopeptide]	5900 nM	3400 nM	–	–
B1	–	–	751 nM	137 nM

Source: PMC11497264, “SARS‐CoV‐2 Spike Protein‐Derived Cyclic Peptides as Modulators of Spike Interaction with GRP78” (Chembiochem, 2024)
